Experimental findings from US20200048644A1 are described below.

This experiment deals with recombinant GPIb. The experiment can be described thus: GPIb binding activity test of the purified product (format not described; FIG. 9).

B1: recombinant Agkisacutacin (heterodimer snake venom protein, A chain and B chain, expressed in Pichia pastoris GS115) (protein)
chain 1: DVDCLPGWSAYDQSCYRVFKLLKTWDDAEKFCTERPKGGHLVSIESAGERDFVAQLVSENKQTDNVWLGLKIQSKGQQCSTEWTDGSSVSYENFSEYQSKKCFVEKNTGFRTWLNLNCGSEYAFVCKSPP
chain 2: GFCCPLRWSSYEGHCYLVVKEKKTWDDAEKFCTEQRKGGHLVSVHSREEADFLVHLAYPILDLSLIWMGLSNMWNDCKREWSDGTKLDFKAWAKTSDCLIGKTDDNQWLNMDCSKKHYFVCKFKL
As to B1, the Kd amounted to 100 nM.

What is called Kd is a measure of binding affinity in units of concentration.
